From the supplement of paper PMC9170038

What was measured:
MS2 coat protein [1] = assay: apparent KD of MS2 coat protein, switch ON state; designed switch direction (-1 OFF switch, 1 ON switch): -1; higher = weaker reporter binding; settings: FMN input: 0 or 200 uM; Eterna round: R93 (includes R88 designs)
Summary of the method: (§1)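 For every design, apparent KD is the median of normalised binding-curve fits from its clusters. The RNA switches were transcribed on-chip from Illumina sequencing clusters and titrated with SNAP-549-labelled MS2 coat protein (twofold steps, 0.7 or 1.5 nM to 3 µM; 0.8–1.5 h to 10–20 min per step). Titrations used 100 mM Tris-HCl pH 7.5, 80 mM KCl, 4 mM MgCl2, without or with constant ligand.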

MS2 coat protein [2] = assay: apparent KD of MS2 coat protein, switch OFF state (with FMN for OFF switches, without FMN for ON switches); designed switch direction (-1 OFF switch, 1 ON switch): -1; higher = weaker reporter binding; settings: FMN input: 0 or 200 uM; Eterna round: R93 (includes R88 designs)
Summary of the method: as §1

Row | Sequence | apparent KD of MS2 coat protein (MS2 coat protein [1]) | apparent KD of MS2 coat protein (MS2 coat protein [2])
1 | AAAAAGUGAGGAUAUGUCAAAGGUCACGAAAGUGACAAAGGACAGAAGGCACAUGAGGAUCACCCAUGUAAAAA [Fiskers Exclusion 4D1 65% - Early G segment 1] | 37.4 nM | 43.6 nM
2 | AAAAAGUGAGGAUAUGUCAAAGGUCACGAAAGUGACAAAGGACAGAAGGCACAUGAGGAUCACCCAUGUGGAAA [Fiskers Exclusion 4D1 65% - Early + late G segment 3] | 27.3 nM | 27.6 nM
3 | AAAAAUAGAGGAUAUACAUGAAAAAAAAAAAAAAAAAAAAAACAUGAGGAUCACCCAUGUAGAAGGCUAAAAAA [double AU!] | 30.8 nM | 29.2 nM
4 | AAAAAUCGAGGAUAUACAUGAGGAUCACCCAUGUCAAAAAAUGACUACACAAAAGAAAGUAGAAGGCGAUAAAA [Ex 3 May 17] | 28.5 nM | 31 nM
5 | AAAAAUCGAGGAUAUACAUGAGGAUCACCCAUGUUAGAAAAUGAUUACACAAAAGAAAGUAGAAGGCGAUAAAA [Ex 3 May 20] | 27.9 nM | 23.4 nM
6 | AAAAAUGGAGGAUAUACAUGAGGAUCACCCAUGUGUAAAAAAAAUUACACAAAAGAAAGUAGAAGGCCAUAAAG [Mat - Exclusion 3 - Mayanna mod - D108] | 59.3 nM | 139 nM
7 | AAAAAUGGAGGAUAUACAUGAGGAUCACCCAUGUGUAACUAUACAAAACACAAAAAAAGUAGAAGGCCAAAAAA [Gilly Gone Silly 7 - Jieux - Exclusion 3] | 20.1 nM | 19.3 nM
8 | AAAAAUGGAGGAUAUACAUGAGGAUCACCCAUGUGUAACUAUACUAAGCGCUCCUCACGUAGAAGGCCAAAAAA [Gilly Gone Silly 14 - Jieux - Exclusion 3] | 74.1 nM | 31.4 nM
9 | AAAAAUUGAGGAUAUACAUGAGGAUCACCCAUGUUAGACCUAAAAAAAGGGAAAGAAAGUAGAAGGCAAUAAAA [Ex 3 May 28] | 14.6 nM | 18.8 nM
10 | AAAACGGUAGGAUAUACAGUCCGUUGUCGAAUGAUGAAAAGACAUGAGGAUCACCCAUGUAGAAGGACCGAAAA [Bienor] | 36.5 nM | 138 nM
11 | AAAACGGUAGGAUAUACAUGAGGAUCACCCAUGUUAAAUUUAAAAAUAAAAUUAAAAUGUAGAAGGACCAAAAA [Mai Tai1] | 31.5 nM | 35 nM
12 | AAAACGGUAGGAUAUACGAUUGGGAACUAGACCGAGGAACCACAUGAGGAUCACCCAUGUAGAAGGGCCAAAAA [Ex2 Malc#14] | 16.9 nM | 16.7 nM
13 | AAAACGUGAGGAUAUGCACCAAAAAAGGAAAAACGGGUACGACAUGAGGAUCACCCAUGUAGAAGGCACGAAAA [Frodo Flailing 9 - Jieux - Exclusion 2] | 40.8 nM | 39 nM
14 | AAAAGAAAAGGAUAUAAAAAGAAAAGUCAGGAUAUAGGAAACUAGAAGGGACAUGAGGAUCACCCAUGUAAAAG [Meechl Ex4 R2 m2] | 35.9 nM | 71.9 nM
15 | AAAAGACAUGAGGAUCACCCAUGUCAGGAUAUGACUUGAAAAAAAAAAAAAAAACAUGUCAGAAGGGACAUGAA [Design 45: Sub-opt D] | 20.6 nM | 19.6 nM
16 | AAAAGACAUGAGGAUCACCCAUGUGAGGAUAUGACGUAAAUAAAGAAAGAAGAAAUCGUCAGAAGGCACACCUA [55%, Disencluded 2, 1] | 29.5 nM | 63.4 nM
17 | AAAAGGAAAGGAUAUGCAGACUGGGUCACCCAGAUGUAUGAACAUGAGGAUCACCCAUGUAGAAGGUUCAAAAG [Ribiquon] | 36.6 nM | 26.5 nM
18 | AAAAGUACAGGAUAUACAUGAGGAUCACCCAUGUGAAAAUUAAGUGGCGUACAACAAAGUAGAAGGGUACUGGA [Ruby 52] | 20.7 nM | 44.6 nM
